One substance from publication PMC2175248 can be followed below.

The test concerns the target myc–E4orf4 (adenovirus 2 (Ad2)). Description: co-IP.

Some results are limits rather than exact numbers.

“v-src (from UniProt P00524 1-526) (enzyme)”: the percent of v-src of the P2 fraction recovered in myc–E4orf4 immune complexes is < 10%.
